We go through nine molecules from patent publication US20250289894A1 (MORPHIC THERAPEUTIC, published 2025).

Read-outs that look alike come from different tables or passages of the source.

Common to all, as to assay: SPR
For orientation: SPR reads the build-up and loss of mass on a sensor chip optically.

For test [1], the target named is T1, Human a7b1 Ecto (X2B) (human, UniProt P05556 21-728).
T1 construct: extracellular domain

For test [2], the target named is T2, Human a7 Genu Calf 1-2 (human, UniProt Q13683 679-1078, limits assumed).
T2 construct: domain: Genu Calf 1-2
T2 sequence (looked up): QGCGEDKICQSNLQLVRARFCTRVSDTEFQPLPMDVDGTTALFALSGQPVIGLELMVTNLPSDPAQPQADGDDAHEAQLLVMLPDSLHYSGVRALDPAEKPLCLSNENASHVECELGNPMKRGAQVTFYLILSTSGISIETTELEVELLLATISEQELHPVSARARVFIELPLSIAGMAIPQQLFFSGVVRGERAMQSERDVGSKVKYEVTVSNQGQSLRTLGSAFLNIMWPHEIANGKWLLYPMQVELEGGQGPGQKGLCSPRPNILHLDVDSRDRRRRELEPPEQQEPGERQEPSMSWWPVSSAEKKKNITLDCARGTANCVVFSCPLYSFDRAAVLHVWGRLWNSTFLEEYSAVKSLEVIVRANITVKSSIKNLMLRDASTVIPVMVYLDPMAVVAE

Test [3] deals with T1, Human a7b1 Ecto (X2B). This is another data set of the same source.
Target sequence in this assay (P05556 21-728): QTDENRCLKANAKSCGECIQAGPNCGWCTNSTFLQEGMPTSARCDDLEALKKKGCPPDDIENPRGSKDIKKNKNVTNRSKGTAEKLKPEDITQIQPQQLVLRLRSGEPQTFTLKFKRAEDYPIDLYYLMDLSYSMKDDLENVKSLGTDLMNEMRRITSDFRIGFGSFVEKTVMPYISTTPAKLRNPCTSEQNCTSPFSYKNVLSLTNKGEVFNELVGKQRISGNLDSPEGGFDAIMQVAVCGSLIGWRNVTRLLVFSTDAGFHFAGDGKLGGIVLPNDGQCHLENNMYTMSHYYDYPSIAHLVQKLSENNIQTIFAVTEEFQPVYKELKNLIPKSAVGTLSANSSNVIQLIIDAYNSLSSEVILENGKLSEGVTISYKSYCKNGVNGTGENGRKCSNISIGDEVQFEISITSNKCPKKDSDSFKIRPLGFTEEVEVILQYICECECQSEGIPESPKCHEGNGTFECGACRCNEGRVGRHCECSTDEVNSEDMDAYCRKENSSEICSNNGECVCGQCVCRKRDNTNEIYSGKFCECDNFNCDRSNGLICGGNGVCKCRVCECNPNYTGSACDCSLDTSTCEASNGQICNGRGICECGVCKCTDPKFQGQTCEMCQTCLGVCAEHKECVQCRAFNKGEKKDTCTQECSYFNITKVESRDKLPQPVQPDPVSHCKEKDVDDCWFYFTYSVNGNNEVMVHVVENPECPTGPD
The target of test [4] is T2, Human a7 Genu Calf 1-2. The source holds these as a separate data set.

B1: Ab24 (antibody, human IgG1, kappa, L234A L235A)
heavy: EVQLVQSGAEVKKPGSSVKVSCKASGYSFTRYWMHWVRQAPGQGLEWIGKIDPSDSETRLNQEFRDRATLTVDKSTSTAYMELSSLRSEDTAVYYCARGGYFGREWYYDVWGQGTLVTVSSASTKGPSVFPLAPSSKSTSGGTAALGCLVKDYFPEPVTVSWNSGALTSGVHTFPAVLQSSGLYSLSSVVTVPSSSLGTQTYICNVNHKPSNTKVDKKVEPKSCDKTHTCPPCPAPEAAGGPSVFLFPPKPKDTLMISRTPEVTCVVVDVSHEDPEVKFNWYVDGVEVHNAKTKPREEQYNSTYRVVSVLTVLHQDWLNGKEYKCKVSNKALAAPIEKTISKAKGQPREPQVYTLPPSRDELTKNQVSLTCLVKGFYPSDIAVEWESNGQPENNYKTTPPVLDSDGSFFLYSKLTVDKSRWQQGNVFSCSVLHEALHSHYTQKSLSLSPG
light: DIVMTQSPLSLPVTPGEPASISCRSSQSLVHRNGNTYLHWYLQKPGQSPQLLIYEVSNRAAGVPDRFSGSGSGTDFTLKISRVEAEDVGVYFCSQSTHVPWTFGGGTKLEIKRTVAAPSVFIFPPSDEQLKSGTASVVCLLNNFYPREAKVQWKVDNALQSGNSQESVTEQDSKDSTYSLSSTLTLSKADYEKHKVYACEVTHQGLSSPVTKSFNRGEC
Take B1: the figures for the Kd in the test with Human a7b1 Ecto (X2B) [1] and with Human a7 Genu Calf 1-2 [2] were 2.4 nM and 0.1 nM, respectively.

B2: Ab25 (antibody, human IgG1, kappa, L234A L235A)
heavy: EVQLVQSGAEVKKPGSSVKVSCKASGYSFTRYWMHWVRQAPGQGLEWIGKIDPSDSETRLNQEFRDRATLTVDKSTSTAYMELSSLRSEDTAVYYCARGGYFGREWYYDVWGQGTLVTVSSASTKGPSVFPLAPSSKSTSGGTAALGCLVKDYFPEPVTVSWNSGALTSGVHTFPAVLQSSGLYSLSSVVTVPSSSLGTQTYICNVNHKPSNTKVDKKVEPKSCDKTHTCPPCPAPEAAGGPSVFLFPPKPKDTLYITREPEVTCVVVDVSHEDPEVKFNWYVDGVEVHNAKTKPREEQYNSTYRVVSVLTVLHQDWLNGKEYKCKVSNKALAAPIEKTISKAKGQPREPQVYTLPPSRDELTKNQVSLTCLVKGFYPSDIAVEWESNGQPENNYKTTPPVLDSDGSFFLYSKLTVDKSRWQQGNVFSCSVMHEALHNHYTQKSLSLSPG
light: DIVMTQSPLSLPVTPGEPASISCRSSQSLVHRNGNTYLHWYLQKPGQSPQLLIYEVSNRAAGVPDRFSGSGSGTDFTLKISRVEAEDVGVYFCSQSTHVPWTFGGGTKLEIKRTVAAPSVFIFPPSDEQLKSGTASVVCLLNNFYPREAKVQWKVDNALQSGNSQESVTEQDSKDSTYSLSSTLTLSKADYEKHKVYACEVTHQGLSSPVTKSFNRGEC
notes: same variable domains as Ab24
As for B2, the Kd (in general, a measure of binding affinity in units of concentration) with Human a7b1 Ecto (X2B) [1] is 3.4 nM; in the test with Human a7 Genu Calf 1-2 [2] it was 0.3 nM.

B3: Ab26 (antibody, human IgG1, kappa, L234A L235A, V domains shown)
VH: EVQLVQSGAEVKKPGSSVKVSCKASGYSFTRYWMHWVRQAPGQGLEWIGKIDPSDSETRLNQEFRDRATLTVDKSTSTAYMELSSLRSEDTAVYYCARGGYFGEEWYHDVWGQGTLVTVSS
VL: DIVMTQSPLSLPVTPGEPASISCRSSQSLVHRNGNTYLHWYLQKPGQSPQLLIYEVSNRFTGVPDRFSGSGSGTDFTLKISRVEAEDVGVYFCAQSTQLPYTFGGGTKLEIKR
In the case of B3, the dissociation constant (Kd) with Human a7b1 Ecto (X2B) [1] is 2.2 nM; with Human a7 Genu Calf 1-2 [2], 0.3 nM.

B4: Ab30 (antibody, human IgG1, V domains shown)
VH: EVQLVQSGAEVKKPGSSVKVSCKASGYSFTRYWMHWVRQAPGQGLEWIGKIDPSDSETRLNQEFRDRATLTVDKSTSTAYMELSSLRSEDTAVYYCARGGYFGEGWYHDVWGQGTLVTVSS
VL: DIVMTQSPLSLPVTPGEPASISCRSSQSLVHRNGNTYLHWYLQKPGQSPQLLIYEVSKRASGVPDRFSGSGSGTDFTLKISRVEAEDVGVYFCAQSIQVPWTFGGGTKLEIK
As for B4, the values for the Kd in the test with Human a7b1 Ecto (X2B) [1] and with Human a7 Genu Calf 1-2 [2] were 3.99 nM and 0.57 nM, respectively.

B5: Ab41 (antibody, human IgG1, V domains shown)
VH: EVQLVQSGAEVKKPGSSVKVSCKASGYSFTRYWMHWVRQAPGQGLEWIGKIDPSDSETRLNQEFRDRATLTVDKSTSTAYMELSSLRSEDTAVYYCARGGYFGEQWYHDVWGQGTLVTVSS
VL: DIVMTQSPLSLPVTPGEPASISCRSSQSLVHRNGNTYLHWYLQKPGQSPQLLIYEVSKRFSGVPDRFSGSGSGTDFTLKISRVEAEDVGVYFCAQSIQVPWTFGGGTKLEIK
As to B5, the equilibrium dissociation constant (Kd) in the test with Human a7b1 Ecto (X2B) [1] stood at 3.88 nM; with Human a7 Genu Calf 1-2 [2] it was 0.71 nM.

B6: AB-P (antibody, V domains shown)
VH: QVQLVQSGAEVKKPGSSVKVSCKASGYSFTRYWMHWVRQAPGQGLEWIGKIDPSDSETRLNQEFRDRATLTVDKSTSTAYMELSSLRSEDTAVYYCARGGYFGEGWYFDVWGQGTLVTVSS
VL: DVVMTQSPLSLPVTPGEPASISCRSSQSLVHRNGNTYLHWYLQKPGQSPQLLIYKVSNRFSGVPDRFSGSGSGTDFTLKISRVEAEDVGVYFCSQSTHVPWTFGGGTKLEIK
Turning to B6, the Kd was determined as 63.7 nM with Human a7b1 Ecto (X2B) [1] and 16.4 nM with Human a7 Genu Calf 1-2 [2].

B7: Ab35 (antibody, human IgG1, V domains shown)
VH: EVQLVQSGAEVKKPGSSVKVSCKASGYSFTRYWMHWVRQAPGQGLEWIGKIDPSDSETRLNQEFRDRATLTVDKSTSTAYMELSSLRSEDTAVYYCARGGYFGENWYHDVWGQGTLVTVSS
VL: DIVMTQSPLSLPVTPGEPASISCRSSQSLVHRNGNTYLHWYLQKPGQSPQLLIYEVSNRYSGVPDRFSGSGSGTDFTLKISRVEAEDVGVYFCAQSIQVPWTFGGGTKLEIK
As for B7, the values for the Kd with Human a7b1 Ecto (X2B) [1] and with Human a7 Genu Calf 1-2 [2] were 4.47 nM and 0.54 nM, respectively.

B8: Ab28 (antibody, human IgG1, lambda, L234A L235A)
heavy: EVQLVESGGGLVKPGGSLRLSCAASGFTFSSYTMNWVRQAPGKGLEWVSSISIVGNYIYYADSLKGRFTISRDNAKNSLYLQMNSLRAEDTAVYYCARRKWEHDAFDIWGQGTMVTVSSASTKGPSVFPLAPSSKSTSGGTAALGCLVKDYFPEPVTVSWNSGALTSGVHTFPAVLQSSGLYSLSSVVTVPSSSLGTQTYICNVNHKPSNTKVDKKVEPKSCDKTHTCPPCPAPEAAGGPSVFLFPPKPKDTLMISRTPEVTCVVVDVSHEDPEVKFNWYVDGVEVHNAKTKPREEQYNSTYRVVSVLTVLHQDWLNGKEYKCKVSNKALAAPIEKTISKAKGQPREPQVYTLPPSRDELTKNQVSLTCLVKGFYPSDIAVEWESNGQPENNYKTTPPVLDSDGSFFLYSKLTVDKSRWQQGNVFSCSVLHEALHSHYTQKSLSLSPG
light: SSELTQDPAVSVALGQTVRITCQGDSLRSYYASWYQQKPGQAPVLVIYGKNNRPSGIPDRFSGSSSGNTASLTITGAQAEDEADFYCTSRDNSGNHVVFGGGTKLTVLGQPKAAPSVTLFPPSSEELQANKATLVCLISDFYPGAVTVAWKADSSPVKAGVETTTPSKQSNNKYAASSYLSLTPEQWKSHKSYSCQVTHEGSTVEKTVAPTECS
For B8, the values for the dissociation constant Kd with Human a7b1 Ecto (X2B) [3] and with Human a7 Genu Calf 1-2 [4] were 7.3 nM and 1.3 nM, respectively.

B9: Ab29 (antibody, human IgG1, lambda, L234A L235A)
heavy: EVQLVESGGGLVKPGGSLRLSCAASGFTFSSYTMNWVRQAPGKGLEWVSSISIVGNYIYYADSLKGRFTISRDNAKNSLYLQMNSLRAEDTAVYYCARRKWEHDAFDIWGQGTMVTVSSASTKGPSVFPLAPSSKSTSGGTAALGCLVKDYFPEPVTVSWNSGALTSGVHTFPAVLQSSGLYSLSSVVTVPSSSLGTQTYICNVNHKPSNTKVDKKVEPKSCDKTHTCPPCPAPEAAGGPSVFLFPPKPKDTLYITREPEVTCVVVDVSHEDPEVKFNWYVDGVEVHNAKTKPREEQYNSTYRVVSVLTVLHQDWLNGKEYKCKVSNKALAAPIEKTISKAKGQPREPQVYTLPPSRDELTKNQVSLTCLVKGFYPSDIAVEWESNGQPENNYKTTPPVLDSDGSFFLYSKLTVDKSRWQQGNVFSCSVMHEALHNHYTQKSLSLSPG
light: SSELTQDPAVSVALGQTVRITCQGDSLRSYYASWYQQKPGQAPVLVIYGKNNRPSGIPDRFSGSSSGNTASLTITGAQAEDEADFYCTSRDNSGNHVVFGGGTKLTVLGQPKAAPSVTLFPPSSEELQANKATLVCLISDFYPGAVTVAWKADSSPVKAGVETTTPSKQSNNKYAASSYLSLTPEQWKSHKSYSCQVTHEGSTVEKTVAPTECS
Turning to B9, the Kd with Human a7b1 Ecto (X2B) [3] came to 8.9 nM; in the test with Human a7 Genu Calf 1-2 [4] it was 3.6 nM.
